# From PMC13170346
# Key:
# [1] = target: T1, His6-PomZ (Myxococcus xanthus (DK1622?)) (UniProt Q1DEM0); experiment: BLI; conditions: 5' biotin-TEG on both strands; BLI: 50 mM HEPES/NaOH pH 7.2, 50 mM KCl, 0.1 mM EDTA, 10% glycerol, 10 mM MgCl2, 1 mM β-mercaptoethanol, 0.05% Tween 20, 1 mM …; 100 nM DNA loaded; assay temp
# T1 sequence: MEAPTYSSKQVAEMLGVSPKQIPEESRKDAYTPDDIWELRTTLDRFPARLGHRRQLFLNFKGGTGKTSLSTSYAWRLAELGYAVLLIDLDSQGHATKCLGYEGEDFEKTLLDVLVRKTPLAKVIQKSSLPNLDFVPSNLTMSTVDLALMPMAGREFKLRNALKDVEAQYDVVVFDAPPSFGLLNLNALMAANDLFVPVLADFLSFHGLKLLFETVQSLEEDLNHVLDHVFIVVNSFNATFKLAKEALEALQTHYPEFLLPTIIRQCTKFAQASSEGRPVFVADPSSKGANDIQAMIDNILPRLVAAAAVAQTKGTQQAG
# [2] = target: T2, PomY624-682-mCh (gD domain) (Myxococcus xanthus (DK1622?)) (UniProt Q1DEM1); experiment: BLI; conditions: 5' biotin-TEG on both strands; BLI: 50 mM HEPES/NaOH pH 7.2, 50 mM KCl, 0.1 mM EDTA, 10% glycerol, 10 mM MgCl2, 1 mM β-mercaptoethanol, 0.05% Tween 20, 1 mM …; 100 nM DNA loaded; assay temp
# T2 sequence: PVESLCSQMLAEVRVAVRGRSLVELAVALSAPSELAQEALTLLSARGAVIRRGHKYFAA
# [3] = target: PomZ (Myxococcus xanthus) (UniProt Q1DEM0)
# [4] = system: His6-PomZ (Myxococcus xanthus (DK1622?)); experiment: BLI; conditions: 1 mM ATP, 10 mM MgCl2; 5' biotin-TEG on both strands; BLI: 50 mM HEPES/NaOH pH 7.2, 50 mM KCl, 0.1 mM EDTA, 10% glycerol, 10 mM MgCl2, 1 mM β-mercaptoethanol, 0.05% Tween 20, 1 mM ATP; 100 nM DNA loaded; assay …
substance,measurement,setting,value
GGGCCACCAAGCCCACCGCCGGCTCCAAGCGGCGGCGCCTGGAAGGCAAGAAGCGCACCTCCGAAAAAAAGGCCCTGAGAAACAGCAAATCCGGCTGGTGACCCAGGGTCCATCAGGACTCCAGTCACCCTGTCGCCGGACAGTCAGGGTGCGCCTAAAGTTTGCGAGCTCGCAGACGTTGCGAGGTCATCTGCTGCTCGCAGGGACCTCCTCCTGGGAATTTGCC (double strand) [cluster3 promoter PCR fragment],Kd,[1],24.3 µM
same,binding,[2],no binding
His6-Sumo-PomY^496-682-mCh (domain or fragment),"specific His6-PomZ ATPase activity (NADH-coupled assay, 4 µM His6-PomZ, with DNA) with purified Sumo-PomY^496-682-mCh, 2 to 10 µM (ATP h^-1 µM^-1)",[3],11.6
cluster3 promoter PCR fragment,Kd,[4],24.3 µM
